Reference: publication PMC4820727

Assays:
Assay in all cases: flow cytometry on cells; Adh adhesion to 293T cells displaying the candidate protein from pDisplay; adhesion rate compared with the control group
[1] = target: CARD displayed on the surface of 293T cells (pDisplay) (pig (protein identified from porcine alveolar macrophages; source of the cDNA not stated))
[2] = target: OR5M11 displayed on the surface of 293T cells (pDisplay) (pig (protein identified from porcine alveolar macrophages; source of the cDNA not stated))
[3] = target: RAB14 displayed on the surface of 293T cells (pDisplay) (pig (protein identified from porcine alveolar macrophages; source of the cDNA not stated)) (UniProt Q52NJ6)
Chain of UniProt Q52NJ6 (Q52NJ6 whole entry): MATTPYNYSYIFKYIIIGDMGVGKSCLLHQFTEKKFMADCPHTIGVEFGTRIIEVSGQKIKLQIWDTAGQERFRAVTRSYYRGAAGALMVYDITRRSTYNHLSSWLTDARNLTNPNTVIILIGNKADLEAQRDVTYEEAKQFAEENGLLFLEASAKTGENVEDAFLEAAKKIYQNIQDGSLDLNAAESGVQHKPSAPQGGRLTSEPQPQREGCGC

[4] = target: RAB1B displayed on the surface of 293T cells (pDisplay) (pig (protein identified from porcine alveolar macrophages; source of the cDNA not stated)) (UniProt Q06AU7)
Chain of UniProt Q06AU7 (Q06AU7 whole entry): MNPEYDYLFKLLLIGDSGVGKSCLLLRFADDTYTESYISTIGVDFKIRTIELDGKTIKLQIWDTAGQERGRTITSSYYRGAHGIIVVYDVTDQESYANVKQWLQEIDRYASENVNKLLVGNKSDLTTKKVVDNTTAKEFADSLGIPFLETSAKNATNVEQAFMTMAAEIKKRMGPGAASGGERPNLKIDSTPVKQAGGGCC

Measured: fold increase of the adhesion rate over the control group

Adh, the 68-612 aa head domain of the trimeric autotransporter adhesin Apa1 of Actinobacillus pleuropneumoniae (domain or fragment)
> 3 fold: all assays above
